Assay results as given in the DeepSol protein solubility set.

Assay: soluble on expression in E. coli; label from the status in PepcDB or PDB records
In the case of “ATGPRYKVPMRRRREARTDYHQRLRLLKSGKPRLVARKSNKHVRAQLVTLGPNGDDTLASAHSSDLAEYGWEAPTGNMPSAYLTGLLAGLRAQEAGVEEAVLDIGLNSPTPGSKVFAIQEGAIDAGLDIPHNDDVLADWQRTRGAHIAEYDEQLEEPLYSGDFDAADLPEHFDELRETLLDGDIEL”, the “soluble on expression in E. coli” value is reported as “soluble”.
For “ATRDFLQRAEAAYKTDGGAAGLGQKAFVKMMQEVCELPSMVAYSLFKRLTGCEAGEEEGAAVPRDTFIKFWTGRGLVTAPPPKRAFDSLRPDGQDYLTFADFWPMMECVLRYHPGLEFLAETQEFQRKYAETVIHRIFYSLNKCGSGRLTFREFRSGELMDALYALDRENDINKILKFFSYEHFYVIYCKFWELDQDHDFQLDKTDLAHYSNCALSYVIVDRIFEEAPRKFKAGTPPGKMCYEDFVWFILSEEDKTTDTALTYWFRCVDLDGDGVIRPREMLYFYEEQLRRLEGWNQEPVQFEDLLCQLHDMLSPAKEGAFTLRDLKRTKPQSGLFFSSLFSLHKFVGFENRDPFAQRAEAAEFTGLSDWDKFAKIEYFRLASEDD”, the “soluble on expression in E. coli” value was “soluble”.
For “ATYAAASSALVPRGSHMYAPKLQGPVAVYTWEGNQVNITCEVFAYPSATISWFRDGQLLPSSNYSNIKIYNTPSASYLEVTPDSENDFGNYNCTAVNRIGQESLEFILVQADTPSSPSIDQVEPYSSTAQVQFDEPEATGGVPILKYKAEWRAVGEEVWHSKWYDAKEASMEGIVTIVGLKPETTYAVRLAALNGKGLGEISAASEFKTQPVQGE”, the “soluble on expression in E. coli” value was “soluble”.
For “AYGKKSQTEVISFEEVVHPAEKIREALQVGKNEAIYELIRRRMLDGEPMTVEKIYLPQAYVQGHTKQDFEGSLFCLIEKNVEIAYSHQEIEAILVEAEISELLNVPVGQPLLQVHSITYALDATPILYDVSLYRADRYTFKNTLTRYSPSENNQVELGGSWNE”, the “soluble on expression in E. coli” value was “soluble”.
For “DAKEKRLREIQFEKEMIERDMREYRGFSRAVRAVFEEKERFPGLVDVVSNLIEVDEKYSLAVSVLLGGTAQNIVVRNVDTAKAIVEFLKQNEAGRVTILPLDLIDGSFNRISGLENERGFVGYAVDLVKFPSDLEVLGGFLFGNSVVVETLDDAIRMKKKYRLNTRIATLDGELISGRGAITGGREERSSNVFERRIKLKHLEQEMEETERQI”, the “soluble on expression in E. coli” value was “soluble”.
For “DALESKKINEALLKQGEALINQLNDRARADTVRYAEEVVKTAAERVKEASQNLTDYRIANGVFDLKAQSEVQMGLVSKLQDELIVIQTQLDQVKAVTPENPQIPGLQAREQSLRKEIDQQLRAISGGGHSSLSNQAAEYQRVYLENQLAEQQLAAAMTSLESAKVEADRQQLYLEVISQPSLPDLAHEPKR”, the “soluble on expression in E. coli” value was “soluble”.
For “DALNRFHDQPLNETELLALMGEMEGKISGGIHYDNVAPCYLGGVQLMLEELGIISQEVPCFDEWYWVMAYPGIKVSTAEAREILPSQYRRQDIIAHGRHLAGFIHACHSGQPELAAKMIKDVIAEPYREKLLPGFANARQ”, the “soluble on expression in E. coli” value was “not soluble”.
In the case of “DDDLEVKEENGVWVLNDGNFDNFVADKDTVLLEFYAPWCGHCKQFAPEYEKIASTLKDNDPPIAVAKIDATSASMLASKFDVSGYPTIKILKKGQAVDYDGSRTQEEIVAKVREVSQPDWTPPPEVT”, the “soluble on expression in E. coli” value is reported as “soluble”.
For “DDIHLIATSDVLYFKAEEKYVSVYAQQGKGEVQEYLIRTSLKELIGQLNPEQFWQVHRSSVVQVSKISKVNKDFAGRMFVYVGETKLPVSRASQSLFKGM”, the “soluble on expression in E. coli” value was “not soluble”.
In the case of “DEPILSFSPKTYSFRQDGRIKEVSVFTYHKKYNPDKHYIYVVRILREGQIEPSFVFRTFDEFQELHNKLSIIFPLWKLPGFPNRMVLGRTHIKDVAAKRKIELNSYLQSLMNASTDVAECDLVCTFFHPLLRDEKAEGIA”, the “soluble on expression in E. coli” value is reported as “soluble”.
For “DEQEKLLRLVDNSVELMSLLGTNNINSYINKAGMELLGFDTMEQVLRTPISELHLKEDFEKVSANVITSLQDKGRWSGQMNVRNLKSGEVIPVYNNTVRIDDPATGEILAFGAVMRDMR”, the “soluble on expression in E. coli” value was “not soluble”.
With “DIGCYTLGGFEPLNAIDTTICMGASIGMAHGFEMARGKEFAKKSVAVIGDSTFWHSGVTGLIDIVYNKGHSTVIILDNSITAMTGHQENPSTGKTLSGERTNQIDFEALGRSIGINRICVVDAYDLKALEETIKEEVNAEEPSLIITKRPCVLIKGAKFDFKDYKIDP” the “soluble on expression in E. coli” value was “not soluble”.
For “DIISVALKRHSTKAFDASKKLTAEEAEKIKTLLQYSPSSTNSQPWHFIVASTEEGKARVAKSAAGTYVFNERKMLDASHVVVFCAKTAMDDAWLERVVDQEEADGRFNTPEAKAANHKGRTYFADMHRVDLKDDDQWMAKQVYLNVGNFLLGVGAMGLDAVPIEGFDAAILDEEFGLKEKGFTSLVVVPVGHHSVEDFNATLPKSRLPLSTIVTEC”, the “soluble on expression in E. coli” value was “soluble”.
For “DIQFSAGLFFQYNLSENFSLRIDPTFDRKGYQYKDITFTDNSGNILGTGKLYGHLDYITIPVLFKASVGNKVKYFVNAGPSIGLLLSETFIYDNPYGNGNQKTHNTNQYKKADAGITAGLGIAIPLGNAIALSFEVRNNVGLTNINKNSNANSAIHANTTSMLVGVAYKF”, the “soluble on expression in E. coli” value was “not soluble”.
In the case of “DIQMTQSPSSLSASLGERVSLTCRASQDIGSKLYWLQQEPDGTFKRLIYATSSLDSGVPKRFSGSRSGSDYSLTISSLESEDFVDYYCLQYASSPYTFGGGTKLAIKRADAAPTVSIFPPSSEQLTSGGASVVCFLNNFYPKDINVKWKIDGSERQNGVLNSWTDQDSKDSTYSMSSTLTLTKDEYERHNSYTCEATHKTSTSPIVKSFNRNEC”, the “soluble on expression in E. coli” value is reported as “soluble”.
With “DIQMTQSPSSLSASVGDRVTITCRSSQSLVHNNANTYLHWYQQKPGKAPKLLIYKVSNRFSGVPSRFSGSGSGTDFTLTISSLQPEDFATYYCSQNTLVPWTFGQGTKVEIKRTVAAPSVFIFPPSDEQLKSGTASVVCLLNNFYPREAKVQWKVDNALQSGNSQESVTEQDSKDSTYSLSSTLTLSKADYEKHKVYACEVTHQGLSSPVTKSFNRGEC” the “soluble on expression in E. coli” value was “soluble”.
With “DIVEAQPSHPDKLLEVPLGRDISGMVQTADLSKMPHLLIAGSTGSGKSVAINGIITGILMQAKPHEVKLMMIDPKMVELNVYNGIPHLLTPVVTNPRKAAQALQKVVQEMEFRYEKFAATGVRNITGYNQLIQQKNAEDGENRPILPFIVVIVDELADLMMVASNEVEDAIIRLAQMARAAGIHMILATQRPSV” the “soluble on expression in E. coli” value was “not soluble”.
With “DKLYPCQCGKSFTHKSQRDRHMSMHLGLRPYGCGVCGKKFKMKHHLVGHMKIHTGIKPYECNICAKRFMWRDSFHRHVTSCTKSYEAAKAEQNTTEA” the “soluble on expression in E. coli” value was “soluble”.
For “DLGTQFLKIGIVKPGIPMDIALNTESRRKTPNVVMIQDGHRTFADAAIGMQVRYPHLVHGQLNDLVGKSTQHPSFELFKRRNTFFEVDDAPKNASSINFKLGGESYTVEALTAMILANAKKFTEEYAQAAEIKDVVITVPVYFTPAERLAVERAAQMAGLTVLQLINDGTAAALSHGIFRRKEIGEKPQRLMVYDMGAAKTTATIVEFKLVKEKYEKQPKMTVLGVGFDRTLGGIEMTNRLRDHLIEMFEKNYKPKTKVNTNRRAMTKFSKEAERLKQVLSANAEHFAQIESAHEDIDAKLKVTREDFNHLISDMESRFGEPIEQALRMAQIPIDDIDQFVLMGAGTRVPKVQEIVQKTIGTKEIGKFLNTDEAVAMGALFQAAHLSKGFKVKPFNIEEKVIFPVEVHFVSKIRDEKTEEITGEKNVVKTLFAANSVYPTHPKTISLTSYSDDFSVALKYGKIESFTKQQVQEIGSLLDNLVDVEISGLSEALKNRSSEESEFKGVKVSFIVDASGIVRVRRAEALFEPKSGLVGSIASTISGLFSSKTEEGEPTTDDSTPQSTEEKTEEKESVKVEDSTPEPEPETPVNSTSEESPKTNETEKNASSGNATEVKEKKKELPSIVRLRITNKYPSAFVPNKYDVQEEKRRMEAFAEKERLASERAAVENELESFNFECSQYLEETEFTDYMADEEKTKLEDSVKRIRAWLEDDVTKDTPTKDFTDNLLELKNVVRSVKKRQEHDKAVPEKLKSLETLLETTFSLTTLGNNVDEEKALFKKEDRDGLKSKLDKLKIWVTDVRKHLDLKKKTDDFNFTGKDIDTKTKNLNREVDRFMKKMKKITTLDDLAKDGKIDIDTIVEEAEKKKAEQDKKKEKKSTKKANESKVENESEIKTEL”, the “soluble on expression in E. coli” value was “not soluble”.
With “DMNYTYTSIAAIDGNIKTFVAAPRVGYRWQYDGGRELRVFVGAMYQNVQQELSGDLKSLNLPPQLLGLVENLSPDAGFNVSQSADENWNSVLGFQYAFNKDWEILMEAGFGERETLFFSLGRRF” the “soluble on expression in E. coli” value was “not soluble”.
For “DPFEDLDALGSILEEKYGLLEAHVVFSPTPDYAGITHDLSRYGAEYMHETVKDGDIVGVSWGTTMYQIAQNMQPKQVKGVEVVQLKGGISHSRVNTYSAETIQLFAEAFQTMPRYLPLPVVFDNADVKRMVEKDRHIERIIEMGKQANIALFTVGTVRDEALLFRLGYFNEEEKALLKKQAVGDICSRFFDAKGNICSSAINDRTIGVELQDLRLKERSILVAGGSRKVSSIHGALTGKYANVLIIDQHTARALVNDL”, the “soluble on expression in E. coli” value was “not soluble”.
For “DPTAQSLQDISDEQVLVLFEQMLVDMNLNEEKQQPLREKDIVIKREMVSQYLHTSKAGMNQKESSRSAMMYIQELRSGLRDMHLLSCLESLRVSLTSHPVSWVQTFGAEGLASLLDILKRLHDEKEETSGNYDSRNQHEIIRCLKAFMNNKFGIKTMLETEEGILLLVRAMDPAVPNMMIDAAKLLSALCILPQPEDMNERVLEAMTERAEMDEVERFQPLLDGLKSGTSIALKVGCLQLINALITPAEELDFRVHIRSELMRLGLHQVLQELREIENEDMKVQLCVFDEQGDEDFFDLKGRLDDIRMEMDDFGEVFQIILNTVKDSKAEPHFLSILQHLLLVRNDYEARPQYYKLIEECVSQIVLHKNGTDPDFKCRHLQID”, the “soluble on expression in E. coli” value was “soluble”.
In the case of “DQEVRLENRITFQLELVGLERVVRISAKPTKRLQEALQPILAKHGLSLDQVVLHRPGEKQPMDLENPVSSVASQTLVLDTPPDAKMSEARS”, the “soluble on expression in E. coli” value is reported as “soluble”.
In the case of “DRHVDTHSEVLIFEVIPADDFLQQQLQITVQDRVWHVKRVRYRKQKPMALEETWMPLALFPDLTWQVMENSKYHFIEEVKKMVIDRSEQEIIPLMPTEEMSRLLNISQTKPILEKVSRGYLVDGRVFEYSRNAFNTDDYK”, the “soluble on expression in E. coli” value is reported as “not soluble”.
In the case of “DRRFQETLDKIRKEEGYDFAAIAFYESNKPSSPIKWHYVSGNKNNRFKLIILRKGRGLAGTVMKTGKRMVIANVGLALGPEEKIDYPILLSESLTAVLAVPLWYKNQVYGVLLFGQRDGRPLPKIFDNDDIQ”, the “soluble on expression in E. coli” value is reported as “not soluble”.
For “DRTTYYSILGLTSNATSSEVHKSYLKLARLLHPDKTKSDKSEELFKAVVHAHSILTDEDQKLRYDRDLKIKGLHTYQPKK”, the “soluble on expression in E. coli” value was “not soluble”.
With “DSRGCARWCPQDSSCVNATACRCNPGFSSFSEIITTPMETCDDINECATLSKVSCGKFSDCWNTEGSYDCVCSPGYEPVSGAKTFKNESENTCQDVDECSSGQHQCDSSTVCFNTVGSYSCRCRPGWKPRHGIPNNQKDTVCE” the “soluble on expression in E. coli” value was “soluble”.
With “DSVIVVDNVPQVGPDRLEKLKNVIHKIFSKFGKITNDFYPEEDGKTKGYIFLEYASPAHAVDAVKNADGYKLDKQHTFRVN” the “soluble on expression in E. coli” value was “soluble”.
For “DTRNEAEACLRYVKTKFARTMLGILKATQDNPKETWRLVPLQDFTAESDIDWTQPVAEIDRQLYRKYGLNESEIAFVEEKVRPMD”, the “soluble on expression in E. coli” value was “not soluble”.
